Results taken from patent US10450355B2, “Lectins and uses thereof” (THE REGENTS OF THE UNIVERSITY OF MICHIGAN, priority 2014, dated 2019).
Changes are numbered by the printed parent chain. Names and notes keep the numbering of the source.

Tests used:
[1] = molecular target: T1, BanLec, natural (banana-derived) (Musa acuminata, UniProt O22321); experiment: Isothermal titration calorimetry, natural BanLec compared with rBanLec; type: binding; conditions: ITC
T1 sequence (O22321 1-141): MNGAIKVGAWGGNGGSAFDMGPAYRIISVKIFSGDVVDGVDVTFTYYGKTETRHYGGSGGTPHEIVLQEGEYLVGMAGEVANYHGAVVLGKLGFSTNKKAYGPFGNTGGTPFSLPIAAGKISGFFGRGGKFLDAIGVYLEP

[2] = molecular target: BanLec variant H84T (recombinant, 6×His tag); experiment: biochemical; type: binding, banana; conditions: for Fold Change (Ka, WT vs H84T): WT compared with H84T
[3] = molecular target: BanLec variant H84T (recombinant, 6×His tag) (Musa acuminata, UniProt O22321, H84T); experiment: biochemical; type: binding, banana
[4] = tested on: the lectins (BanLec WT and H84T mutant); experiment: Isothermal titration calorimetry, general statement for the lectins; parameters: species or system banana; conditions: ITC, 25° C., PBS; relatively low binding constants
Description: Isothermal Titration Calorimetry
Binding constants of the lectins for methyl-α-D-mannopyranoside were determined by isothermal titration calorimetry using a MicroCal VP-ITC calorimeter (Micro-Cal, Northampton, Mass., USA) at 25° C. Data were analyzed using Origins Ver. 7 software supplied with the instrument. The lectin in PBS, generally at approx. 0.2 mM, was titrated with the ligand at 20 mM in the same buffer. The titration volumes were adjusted so that the titration proceeded to at least a 10-fold molar excess of ligand over lectin monomers. The relatively low binding constants (Ka<1000 M^−1) precluded obtaining full saturation or a definite sigmoidal titration curve from which a definitive stoichiometry can be calculated; thus, the stoichiometry was fixed at 1 for curve-fitting to determine Ka; values between about 0.5 and 2-3 had little effect on the Ka-value obtained.

[5] = molecular target: T2, BanLec, recombinant wild type (rBanLec, codon-optimized cDNA from gi71042661, C-terminal 6×His tag) (Musa acuminata, UniProt O22321); experiment: Isothermal titration calorimetry, binding constants of lectin for sugar; parameters: species or system banana; conditions: WT BanLec, ITC, 25° C., PBS, stoichiometry fixed at 1
T2 sequence (O22321 1-141): T1 sequence (O22321 1-141)

[6] = tested on: peripheral blood lymphocytes (PBL); experiment: Mitogenic activity by BrdU incorporation; type: cell-based; conditions: for stimulation index (mitogenic activity): PBL, three days with lectin, BrdU, less than ten considered non-mitogenic; for mitogenicity, in words: relative to WT BanLec
HIV-1 pseudo-typed virus = type: cell-based; conditions: for anti-HIV activity, in words: relative to WT BanLec
[7] = Aggregation in solution during NMR studies; type: physicochemical; conditions: NMR samples
[8] = tested on: formaldehyde-treated rabbit erythrocytes; experiment: Haemagglutination assay; type: cell-based; conditions: rabbit red blood cells
[9] = tested on: 1918 H1N1 pandemic influenza strain; type: cell-based, influenza A virus
HIV-1 JR-CSF = type: in vivo, BLT humanized mice; conditions: 75 μg vaginally ten minutes before vaginal HIV-1 JR-CSF challenge; six weeks; p=0.0359 vs PBS
[10] = tested on: H5N1 avian influenza strain; type: cell-based, influenza A virus
[11] = tested on: PBMCs from healthy donors; experiment: Bio-Plex cytokine assay; type: cell-based, human; conditions: PBMC from multiple donors, 72 h
[12] = tested on: CD4+ peripheral blood mononuclear cells (PBMC); experiment: Flow cytometry of activation marker CD69; type: cell-based

CO[C@H]1O[C@H](CO)[C@@H](O)[C@H](O)[C@@H]1O [methyl-α-mannoside, Methyl α-d-mannopyranoside]
affinity for the ligand, BanLec vs rBanLec [1]: no difference
KD-values, rBanLec vs H84T [2]: similar
Fold Change (Ka, WT vs H84T) [2]: 1.09
Kd [3]: 2830 nM
Ka [4]: < 1000 M⁻¹
Kd ([5]; read-out: Ka (converted)): 2610 nM

OC[C@H]1O[C@@H](O[C@H]2[C@H](O)[C@H](O)C(O)O[C@@H]2CO)[C@@H](O)[C@@H](O)[C@@H]1O (some centres unmarked) [mannobiose]
KD-values, rBanLec vs H84T [2]: similar
Fold Change (Ka, WT vs H84T) [2]: 1.32
Ka ([3]; H84T BanLec, ITC, 25° C., PBS, stoichiometry fixed at 1): 227 mM⁻¹
Ka [5]: 300 mM⁻¹

Griffithsin [reference compound]
stimulation index (mitogenic activity) [6]: less than ten

GNA: Galanthus nivalis agglutinin, non-mitogenic negative control [reference compound]
stimulation index (mitogenic activity) [6]: less than ten

B1: D133G: BanLec mutant with a mutation in the first or second Greek Key sugar binding motif (protein)
chain: T1 sequence (O22321 1-141) with D133G
mitogenicity, in words [6]: abolished the mitogenic activity

B2: H84E: BanLec mutant, H84 replaced by glutamic acid (protein)
chain: T1 sequence (O22321 1-141) with H84E
anti-HIV activity, in words (HIV-1 pseudo-typed virus): marked loss
mitogenicity, in words [6]: marked loss

B3: H84L: BanLec mutant, H84 replaced by leucine (protein)
chain: T1 sequence (O22321 1-141) with H84L
anti-HIV activity, in words (HIV-1 pseudo-typed virus): marked loss
mitogenicity, in words [6]: marked loss

B4: H84Y: BanLec mutant, H84 replaced by tyrosine (protein)
chain: T1 sequence (O22321 1-141) with H84Y
anti-HIV activity, in words (HIV-1 pseudo-typed virus): minimal effects
mitogenicity, in words [6]: minimal effects

B5: H84W: BanLec mutant, H84 replaced by tryptophan (protein)
chain: T1 sequence (O22321 1-141) with H84W
anti-HIV activity, in words (HIV-1 pseudo-typed virus): minimal effects
mitogenicity, in words [6]: minimal effects

B6: H84K: BanLec mutant, H84 replaced by lysine (protein)
chain: T1 sequence (O22321 1-141) with H84K
anti-HIV activity, in words (HIV-1 pseudo-typed virus): marked loss
mitogenicity, in words [6]: marked loss

B7: H84T: BanLec variant in which the histidine at position 84 is replaced by a threonine (protein)
chain: T1 sequence (O22321 1-141) with H84T
aggregation over time in solution [7]: tendency to aggregate over time
inhibition of HIV replication (IC50), in words (HIV-1 pseudo-typed virus): low nanomolar range
anti-HIV inhibition relative to WT BanLec (HIV-1 pseudo-typed virus; multiple different isolates of HIV): equal to or within one log
minimal agglutination concentration [8]: 487 µg/mL
inhibition of replication of 1918 H1N1 virus [9]: very active and equally inhibited replication
mice with detectable levels of viral RNA in the plasma (HIV-1 JR-CSF): none of the mice
inhibition of replication of H5N1 avian influenza virus [10]: very active and equally inhibited replication
cytokine/chemokine production [11]: markedly reduced production of cytokines
cell surface expression of activation marker CD69 [12]: very little upregulation
stimulation of proliferation of lymphocytes ([6]; concentrations up to 1 μM): did not stimulate the proliferation of lymphocytes

B8: H84G: BanLec mutant, H84 replaced by glycine (protein)
chain: T1 sequence (O22321 1-141) with H84G
anti-HIV activity, in words (HIV-1 pseudo-typed virus): preserving some antiviral HIV activity
mitogenicity, in words [6]: reasonably similar drop in mitogenicity as H84T

B9: H84Q: BanLec mutant, H84 replaced by glutamine (protein)
chain: T1 sequence (O22321 1-141) with H84Q
anti-HIV activity, in words (HIV-1 pseudo-typed virus): marked loss
mitogenicity, in words [6]: marked loss

B10: H84F: BanLec mutant, H84 replaced by phenylalanine (protein)
chain: T1 sequence (O22321 1-141) with H84F
anti-HIV activity, in words (HIV-1 pseudo-typed virus): minimal effects
mitogenicity, in words [6]: minimal effects

B11: H84D: BanLec mutant, H84 replaced by aspartic acid (protein)
chain: T1 sequence (O22321 1-141) with H84D
anti-HIV activity, in words (HIV-1 pseudo-typed virus): marked loss
mitogenicity, in words [6]: marked loss
